Reference: paper PMC2631452, “Redox biology of Mycobacterium tuberculosis H37Rv: protein-protein interaction between GlgB and WhiB1 involves exchange of thiol-disulfide” (BMC Biochemistry, 2009)

Target: T1, purified, oxidized GlgB pre-alkylated with iodoacetamide (Mycobacterium tuberculosis H37Rv, UniProt P9WN45 1-731, free cysteines C95 and C658 alkylated with iodoacetamide; C193 and C617 in an intra-molecular disulfide bond (oxidized))
T1 construct: GlgB (Rv1326c), Mycobacterium tuberculosis; recombinant, about 85 kDa on SDS-PAGE; also called pre-alkylated oxidized GlgB; pre-alkylated GlgB
T1 sequence: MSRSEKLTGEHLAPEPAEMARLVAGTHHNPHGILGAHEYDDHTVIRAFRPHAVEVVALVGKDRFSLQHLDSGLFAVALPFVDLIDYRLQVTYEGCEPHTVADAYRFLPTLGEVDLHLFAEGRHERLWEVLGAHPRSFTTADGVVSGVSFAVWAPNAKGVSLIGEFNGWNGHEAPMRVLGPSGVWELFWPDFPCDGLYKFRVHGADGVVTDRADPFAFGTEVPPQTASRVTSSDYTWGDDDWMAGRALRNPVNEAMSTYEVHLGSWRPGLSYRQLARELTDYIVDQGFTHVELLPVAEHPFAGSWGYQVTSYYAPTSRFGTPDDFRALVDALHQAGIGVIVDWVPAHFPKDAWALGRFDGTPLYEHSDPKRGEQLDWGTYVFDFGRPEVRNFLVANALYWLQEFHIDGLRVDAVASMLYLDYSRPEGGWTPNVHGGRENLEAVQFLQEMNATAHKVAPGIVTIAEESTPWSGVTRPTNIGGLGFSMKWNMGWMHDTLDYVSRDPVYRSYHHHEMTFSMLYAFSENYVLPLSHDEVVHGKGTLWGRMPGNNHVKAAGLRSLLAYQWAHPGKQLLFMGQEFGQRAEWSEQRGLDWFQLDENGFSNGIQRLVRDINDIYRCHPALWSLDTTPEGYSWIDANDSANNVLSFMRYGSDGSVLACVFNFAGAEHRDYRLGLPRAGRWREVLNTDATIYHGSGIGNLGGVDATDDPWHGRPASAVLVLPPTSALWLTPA
Assay: […]; 50 mM Tris.HCl pH 8.0, 100 mM NaCl, 0.05% Triton X-100, 2 mM EDTA, 10 mM MgCl2, 25°C; […]
Conditions: both partners purified

B1: WhiB1C40S (natural protein)
chain: MDWRHKAVCRDEDPELFFPVGNSGPALAQIADAKLVCNRSPVTTECLSWALNTGQDSGVWGGMSEDERRALKRRNARTKARTGV
notes: also called C40S mutant of WhiB1
binding result: binds
